T1: UBI::KALA hybrid protein substrate (ubiquitin fused to the 18-amino-acid KALA peptide)
T1 chain: DPGDKDGDGYISAAEAMA

B1: UBP1ΔC protease (UBP1 deletion mutant with mutation C at position 754) (protein)
chain: GGDHLNYIVESVSEMTTNFRNNNSLSRWLPRSKFTHLDEEILKRGGFIAGLVNDGNTCFMNSVLQSLASSRELMEFLDNNVIRTYEEIEQNEHNEEGNGQESAQDEATHKKNTRKGGKVYGKHKKKLNRKSSSKEDEEKSQEPDITFSVALRDLLSALNAKYYRDKPYFKTNSLLKAMSKSPRKNILLGYDQEDAQEFFQNILAELESNVKSLNTEKLDTTPVAKSELPDDALVGQLNLGEVGTVYIPTEQIDPNSILHDKSIQNFTPFKLMTPLDGITAERIGCLQCGENGGIRYSVFSGLSLNLPNENIGSTLKLSQLLSDWSKPEIIEGVECNRCALTAAHSHLFGQLKEFEKKPEGSIPEKPINAVKDRVHQIEEVLAKPVIDDEDYKKLHTANMVRKCSKSKQILISRPPPLLSIHINRSVFDPRTYMIRKNNSKVLFKSRLNLAPWCCDINEINLDARLPMSKKEKAAQQDSSEDENIGGEYYTKLHERFEQEFEDSEEEKEYDDAEGNYASHYNHTKDISNYDPLNGEVDGVTSDDEDEYIEETDALGNTIKKRIIEHSDVENENVKDNEELQEIDNVSLDEPKINVEDQLETSSDEEDVIPAPPINYARSFSTVPATPLTYSLRSVIVHYGTHNYGHYIAFRKYRGCWWRISDETVYVVDEAEVLSTPGVFMLFYEYDFDEETGKMKDDLEAILSNNEEDDEKEQEQKGVQEPKESQEQGEGEEQEEGQEQMKFERTEDHRDISGKDVNGSHHHHHH
B2: UBP1ΔC2 protease (UBP1 truncated by 98 N-terminal amino acids, mutation C Gln754Leu, six histidine residues at its C-end) (protein)
chain: GGFIAGLVNDGNTCFMNSVLQSLASSRELMEFLDNNVIRTYEEIEQNEHNEEGNGQESAQDEATHKKNTRKGGKVYGKHKKKLNRKSSSKEDEEKSQEPDITFSVALRDLLSALNAKYYRDKPYFKTNSLLKAMSKSPRKNILLGYDQEDAQEFFQNILAELESNVKSLNTEKLDTTPVAKSELPDDALVGQLNLGEVGTVYIPTEQIDPNSILHDKSIQNFTPFKLMTPLDGITAERIGCLQCGENGGIRYSVFSGLSLNLPNENIGSTLKLSQLLSDWSKPEIIEGVECNRCALTAAHSHLFGQLKEFEKKPEGSIPEKPINAVKDRVHQIEEVLAKPVIDDEDYKKLHTANMVRKCSKSKQILISRPPPLLSIHINRSVFDPRTYMIRKNNSKVLFKSRLNLAPWCCDINEINLDARLPMSKKEKAAQQDSSEDENIGGEYYTKLHERFEQEFEDSEEEKEYDDAEGNYASHYNHTKDISNYDPLNGEVDGVTSDDEDEYIEETDALGNTIKKRIIEHSDVENENVKDNEELQEIDNVSLDEPKINVEDQLETSSDEEDVIPAPPINYARSFSTVPATPLTYSLRSVIVHYGTHNYGHYIAFRKYRGCWWRISDETVYVVDEAEVLSTPGVFMLFYEYDFDEETGKMKDDLEAILSNNEEDDEKEQEQKGVQEPKESQEQGEGEEQEEGQEQMKFERTEDHRDISGKDVNGSHHHHHH

Legend:
[1] = biological target: T1, UBI::KALA hybrid protein substrate …
[2] = biological target: His6UBI::ElisaC hybrid protein (six histidines, ubiquitin and the C-terminal fragment of UBP1ΔC protease)

Protein	proteolytic activity (cleavage of ubiquitin from the hybrid substrate, SDS-PAGE image analysis), reference enzyme [1]	proteolytic activity (cleavage of ubiquitin from the hybrid substrate, SDS-PAGE image analysis), reference enzyme [2]	proteolytic activity (cleavage of ubiquitin from the hybrid substrate, SDS-PAGE image analysis), fold over UBP1ΔC [1]	preparative digestion of the hybrid protein, then Ni-NTA chromatography and SDS-PAGE [2]	proteolytic activity (cleavage of ubiquitin from the hybrid substrate, SDS-PAGE image analysis), fold over UBP1ΔC [2]
B1	the enzyme UBP1ΔC2 is 5-6 times more active than mutant UBP1 AC	the enzyme UBP1ΔC2 is 5-6 times more active than mutant UBP1 AC	–	–	–
B2	–	–	the enzyme UBP1ΔC2 is 5-6 times more active than mutant UBP1 AC	High purity ElisaC protein was obtained, cleaved from 6HisUBI	the enzyme UBP1ΔC2 is 5-6 times more active than mutant UBP1 AC

Reference: patent US20080153130
